The values that follow come from patent publication US12552837B2, “Bicyclic peptide ligands with detectable moieties and uses thereof” (BicycleRD Limited, priority 2017, dated 2026).

*1 amine or outer side, *2 acyl side, *3 side chain or, on linkers, in order; H or OH if unused. Where a SMILES comes first, the peptide text is derived from it. Bridges are numbered along the chain shown (N, C = ends). Where no end group is shown, it is not given here. [ ]: non-standard residue; d: D form. The star is where a group is joined. DOTA = O=C(O)CN1CCN(CC(=O)O)CCN(CC(=O)*)CCN(CC(=O)O)CC1; 1Nal = N[C@@H](Cc1cccc2ccccc12)C(=O)O; TBMB = c1c(C[*:1])cc(C[*:3])cc1C[*:2]; hArg = N=C(N)NCCCC[C@H](N)C(=O)O; Tle = CC(C)(C)[C@H](N)C(=O)O; Aib = CC(C)(N)C(=O)O; βAla = NCCC(=O)O; Sar = CNCC(=O)O

The test system of one data set is xenograft tumor. Briefly: μPET imaging with 68Ga-labelled Bicycle peptides in xenograft mice. Format: in vivo. Particulars: 150 pmoles. The procedure:
General method for μPET imaging: the mice were anaesthetized (2% sevoflurane, Abbott), placed into the small animal PET scanner (Inveon PET, Siemens) and injected with 68Ga-labeled Bicycle peptides. A 20 min transmission scan, a 50 min dynamic scan and a static scan from 100 to 120 min p.i. were performed. Images were reconstructed iteratively using the space alternating generalized expectation maximization method (SAGE, 16 subsets, 4 iterations) applying median root prior correction and were converted to standardized uptake value (SUV) images. Quantitation was done using a ROI (region of interest) technique and expressed as SUVmean.
General method for radiolabeling with Ga-68: ^68Ga (half-life 68 min; β^+ 89%; Eβ+max. 1.9 MeV) was obtained from a in house ^68Ge/^68Ga generator based on pyrogallol resin support. 1 GBq ^68Ga was eluted using 5.5 M HCl. The activity was trapped on a small anion-exchanger cartridge (AG1X8, Biorad, Richmond, CA, USA) as [^68Ga]GaCl4^−. The radiogallium was eluted from the cartridge in a final volume of 300 μL ultrapure water (Merck, Darmstadt, Germany) as [^68Ga]GaCl3.
1 nmol Bicycle peptide in 1 μL DMSO was added to a mixture of 50 μL 0.05 M HEPES, 0.1% Tween-20, and 80 μL [^68Ga]Ga^3+ eluate (˜200 MBq). The pH of the labelling solution was adjusted to 4.2 using 30% NaOH. The reaction mixture was incubated at 98° C. for 10 minutes. The radiochemical yield (RCY) was determined using reversed-phase high performance liquid chromatography (RP-HPLC; Chromolith RP-18e, 100×4.6 mm; Merck, Darmstadt, Germany). The analytical HPLC run was performed using a linear A-B gradient (0% B to 100% B in 6 min) at a flow rate of 4 mL/min. Solvent A consisted of 0.1% aqueous TFA and solvent B was 0.1% TFA in CH3CN.
For μPET imaging, the labelling reaction mixture was diluted in injection buffer (0.25 M Na-Acetate 0.05% Tween-20 pH 7) by a factor of 6 to obtain 150 pmoles in 100 μL injection buffer. The anaesthetized mouse (2% sevoflurane, Abbott) was injected with 100 μL of ^68Ga-labelled I-23 (˜25 MBq) and placed in a small animal PET scanner (Inveon PET, Siemens). The imaging was performed 60 min post-injection and included a 15 min transmission scan before injection and a 60 min emission scan post-injection. Scans from μPET imaging were reconstructed iteratively using the space alternating generalized expectation maximization method (SAGE, 16 subsets, 4 iterations) applying median root prior correction and were converted to standardized uptake value (SUV) images. Quantitation was accomplished using an ROI (region of interest) technique and expressed as SUVmean.
The radiolabelling with Ga-68 was done as described before. […] Quantitation was accomplished using an ROI (region of interest) technique and expressed as SUVmean. […]

A further data set deals with integrin αvβ3 (Homo sapiens, UniProt P05106+P06756). Particulars: bicyclic peptide formed with TBMB; as described in UK provisional application P2122; read-out: Ki of αvβ3 binder; cited from earlier work.
Chain of integrin αvβ3 (P06756 31-889 limits assumed): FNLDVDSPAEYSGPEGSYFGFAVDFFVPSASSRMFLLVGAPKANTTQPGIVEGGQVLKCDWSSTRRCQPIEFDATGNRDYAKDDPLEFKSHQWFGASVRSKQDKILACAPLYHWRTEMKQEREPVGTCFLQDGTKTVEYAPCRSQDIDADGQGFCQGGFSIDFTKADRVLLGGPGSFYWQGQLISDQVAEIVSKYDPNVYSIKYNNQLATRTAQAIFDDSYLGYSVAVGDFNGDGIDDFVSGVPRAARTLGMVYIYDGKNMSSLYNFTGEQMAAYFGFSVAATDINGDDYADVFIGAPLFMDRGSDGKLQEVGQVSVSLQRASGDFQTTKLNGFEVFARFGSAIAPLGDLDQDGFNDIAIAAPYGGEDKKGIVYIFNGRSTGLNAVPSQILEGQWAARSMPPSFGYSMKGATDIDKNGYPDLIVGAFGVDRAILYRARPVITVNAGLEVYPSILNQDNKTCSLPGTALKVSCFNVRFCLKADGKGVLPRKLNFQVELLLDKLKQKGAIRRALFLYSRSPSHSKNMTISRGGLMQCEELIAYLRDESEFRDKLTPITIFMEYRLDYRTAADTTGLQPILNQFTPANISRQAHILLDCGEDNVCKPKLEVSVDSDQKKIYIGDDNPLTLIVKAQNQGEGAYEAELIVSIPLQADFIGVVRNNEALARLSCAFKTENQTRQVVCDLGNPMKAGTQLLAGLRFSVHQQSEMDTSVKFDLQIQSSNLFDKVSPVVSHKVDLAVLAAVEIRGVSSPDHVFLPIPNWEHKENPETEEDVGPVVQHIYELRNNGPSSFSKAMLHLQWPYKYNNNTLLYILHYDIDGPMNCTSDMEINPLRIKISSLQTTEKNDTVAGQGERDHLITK
Chain of integrin αvβ3 (P06756 891-1048 partner limits assumed): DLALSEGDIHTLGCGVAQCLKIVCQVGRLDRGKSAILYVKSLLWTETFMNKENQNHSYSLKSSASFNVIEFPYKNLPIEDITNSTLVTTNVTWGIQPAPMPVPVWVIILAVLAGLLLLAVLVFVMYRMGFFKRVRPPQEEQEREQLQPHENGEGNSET
Chain of integrin αvβ3 (P05106 27-788): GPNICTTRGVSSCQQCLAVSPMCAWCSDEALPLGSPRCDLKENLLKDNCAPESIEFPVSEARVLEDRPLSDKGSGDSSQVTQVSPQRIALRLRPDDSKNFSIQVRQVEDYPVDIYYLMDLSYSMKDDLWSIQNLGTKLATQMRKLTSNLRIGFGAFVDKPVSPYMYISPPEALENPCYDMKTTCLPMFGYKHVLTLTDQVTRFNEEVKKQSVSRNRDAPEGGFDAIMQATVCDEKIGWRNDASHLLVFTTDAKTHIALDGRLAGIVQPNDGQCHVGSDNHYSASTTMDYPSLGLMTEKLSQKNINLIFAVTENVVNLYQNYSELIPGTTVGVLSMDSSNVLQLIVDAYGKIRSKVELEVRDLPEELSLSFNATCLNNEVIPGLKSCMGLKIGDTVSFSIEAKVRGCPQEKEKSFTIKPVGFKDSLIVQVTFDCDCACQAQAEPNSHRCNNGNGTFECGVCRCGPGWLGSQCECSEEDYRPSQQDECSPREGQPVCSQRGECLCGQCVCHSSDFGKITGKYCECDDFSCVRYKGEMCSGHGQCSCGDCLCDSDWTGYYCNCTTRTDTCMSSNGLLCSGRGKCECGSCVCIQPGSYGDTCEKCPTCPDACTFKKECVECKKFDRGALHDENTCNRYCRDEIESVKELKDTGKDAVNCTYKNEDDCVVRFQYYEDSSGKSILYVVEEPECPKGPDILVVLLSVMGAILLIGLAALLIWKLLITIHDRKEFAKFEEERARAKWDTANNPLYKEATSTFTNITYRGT
A further data set addresses human CAIX (Homo sapiens, UniProt Q16790). Particulars: bicyclic peptide formed with TBMB; as described in UK provisional application P2120; read-out: Kd of CAIX binder; cited from earlier work.
Another data set addresses MT1-MMP hemopexin domain (Homo sapiens, UniProt P50281). Particulars: bicyclic peptide formed with TBMB; as described in WO 2016/067035; read-out: Kd of MT1-MMP binder; cited from earlier work.

For the compound `CC(C)[C@H](NC(=O)[C@@H](CC(=O)O)NC(=O)[C@H](Cc1c[nH]cn1)NC(=O)CN(C)C(=O)CN(C)C(=O)CN(C)C(=O)CN(C)C(=O)CN(C)C(=O)CN(C)C(=O)CN(C)C(=O)CN(C)C(=O)CN(C)C(=O)CN(C)C(=O)CCNC(=O)CN1CCN(CC(=O)O)CCN(CC(=O)O)CCN(CC(=O)O)CC1)C(=O)N1CCC[C@H]1C(=O)N[C@H]1CSCc2cc3cc(c2)CSC[C@H](NC(=O)[C@H](Cc2cccc4ccccc24)NC(=O)[C@H](Cc2ccccc2)NC(=O)C(C)(C)NC(=O)CNC(=O)[C@H](Cc2cccc4ccccc24)NC(=O)C(C)(C)NC1=O)C(=O)N1CCC[C@H]1C(=O)N[C@@H](C(C)(C)C)C(=O)N[C@@H](CC(N)=O)C(=O)N[C@@H](CCCCNC(=N)N)C(=O)N1CCC[C@H]1C(=O)N[C@H](CC(=O)O)C(=O)N[C@H](C(N)=O)CSC3` [I-15] ({DOTA-βAla}-[Sar][Sar][Sar][Sar][Sar][Sar][Sar][Sar][Sar][Sar]H[dD]VPC[Aib][1Nal]G[Aib]F[1Nal]CP[Tle]N[hArg]P[dD]C-NH2; linker 15-22-29 via TBMB), in the data set with xenograft tumor, the “liver uptake in PET imaging” value is “clearly reduced liver uptake” and the “tumor signal in PET imaging” value is reported as “extremely high”.

As usually defined, the Ki is the equilibrium dissociation constant of an inhibitor or competing ligand from its target. As for “Ac-CIL(HArg)PNCDLDGRCA-Sar6-(D-K) [compound 5, "peptide 5"]”, the Ki on integrin αvβ3 is 15 nM.

What is called Kd is the concentration at which binding is half-saturated. In the case of “βA1a-Sar10-A-CTECWVDGWVPC [compound 3, "peptide 3"]”, at human CAIX, the Kd was 10 nM.

On to “βAla-Sar10-A-C(D-Ala)NE(1Nal)(D-Ala)CEDFYD(tBuGLy)C ([βAla][Sar][Sar][Sar][Sar][Sar][Sar][Sar][Sar][Sar][Sar]AC[dA]NE[1Nal][dA]CEDFYD[Tle]C; linker 13-19-26 via TBMB) [17-69-07-N241, "peptide 1 (17-69-07-N241)"]”, for which the Kd with MT1-MMP hemopexin domain was 1.2 nM.
